Test results reported in publication PMC10786891, “Massively parallel profiling of RNA-targeting CRISPR-Cas13d”.

T1: EsCas13d, nuclease-dead (Eubacterium siraeum, UniProt B0MS50, R295A;H300A;R849A;H854A)
T1 sequence: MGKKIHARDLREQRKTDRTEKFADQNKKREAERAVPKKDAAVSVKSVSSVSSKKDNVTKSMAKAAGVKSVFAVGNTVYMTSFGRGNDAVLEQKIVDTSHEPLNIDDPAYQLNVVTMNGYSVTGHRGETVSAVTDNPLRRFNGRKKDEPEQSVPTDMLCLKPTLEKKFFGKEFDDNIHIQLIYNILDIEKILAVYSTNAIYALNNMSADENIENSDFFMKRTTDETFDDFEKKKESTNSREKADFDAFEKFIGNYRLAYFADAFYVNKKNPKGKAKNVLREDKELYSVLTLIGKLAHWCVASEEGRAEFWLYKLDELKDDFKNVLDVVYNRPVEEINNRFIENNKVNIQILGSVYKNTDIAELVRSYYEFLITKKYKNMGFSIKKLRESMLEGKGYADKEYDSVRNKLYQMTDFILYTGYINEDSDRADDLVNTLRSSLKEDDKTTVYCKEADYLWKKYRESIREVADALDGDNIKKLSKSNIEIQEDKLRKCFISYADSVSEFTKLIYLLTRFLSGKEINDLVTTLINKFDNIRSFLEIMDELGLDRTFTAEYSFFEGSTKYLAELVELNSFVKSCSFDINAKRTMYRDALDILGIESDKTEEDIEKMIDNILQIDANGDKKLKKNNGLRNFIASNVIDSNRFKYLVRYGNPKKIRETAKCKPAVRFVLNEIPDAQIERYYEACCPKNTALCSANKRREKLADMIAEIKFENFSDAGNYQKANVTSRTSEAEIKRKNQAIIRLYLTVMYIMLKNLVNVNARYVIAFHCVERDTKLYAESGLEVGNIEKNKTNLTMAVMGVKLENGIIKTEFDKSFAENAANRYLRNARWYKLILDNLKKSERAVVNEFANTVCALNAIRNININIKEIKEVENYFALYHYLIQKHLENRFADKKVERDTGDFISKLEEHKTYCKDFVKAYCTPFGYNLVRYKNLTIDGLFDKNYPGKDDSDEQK


Biological target: T1, EsCas13d, nuclease-dead
Assay: crRNA (strand 1, pre-loaded); Mg2+; 40 mM Tris-HCl pH 7.5, 150 mM NaCl, 6 mM MgCl2, 1 mM DTT, 0.1% Tween-20, 0.2 mg/ml BSA; 25 C; 10 min per concentration, then washed
Conditions: tags: His6-TwinStrep-SUMO cleaved; N-terminal SNAP kept (SNAP-Surface 488); label: 3' end held by stalled T7 RNA polymerase

Binder | Kd [nM]
target 1 MT 5'PFS AAG 3'PFS ACU (mixed) RNA 1: CACCCGUGCAAAAAUGCAGGGGUCUAAAACUGAGCGGAUAACCUCUCUAUGG RNA 2: GGGAAUGGAUCCACAUCUACGAAUUCAAGCCAUAGAGAGGUUAUCCGCUCAACUAGAUCGGAAGAGCACACGU | 16.5 ± 6
target 1 MT 5'PFS GUU 3'PFS ACA (mixed) RNA 1: CACCCGUGCAAAAAUGCAGGGGUCUAAAACUGAGCGGAUAACCUCUCUAUGG RNA 2: GGGAAUGGAUCCACAUCUACGAAUUCGUUCCAUAGAGAGGUUAUCCGCUCAACAAGAUCGGAAGAGCACACGU | 26.5 ± 9.5
target 1 insC 3' of 20,insC 3' of 15 (mixed) RNA 1: CACCCGUGCAAAAAUGCAGGGGUCUAAAACUGAGCGGAUAACCUCUCUAUGG RNA 2: GGGAAUGGAUCCACAUCUACGAAUUCGUACCACUAGAGCAGGUUAUCCGCUCACCGAGAUCGGAAGAGCACACGU | 10.1 ± 0.6
target 1 MT 5'PFS AAA 3'PFS AAC (mixed) RNA 1: CACCCGUGCAAAAAUGCAGGGGUCUAAAACUGAGCGGAUAACCUCUCUAUGG RNA 2: GGGAAUGGAUCCACAUCUACGAAUUCAAACCAUAGAGAGGUUAUCCGCUCAAACAGAUCGGAAGAGCACACGU | 30 ± 12
target 1 MT 5'PFS UCA 3'PFS CCU (mixed) RNA 1: CACCCGUGCAAAAAUGCAGGGGUCUAAAACUGAGCGGAUAACCUCUCUAUGG RNA 2: GGGAAUGGAUCCACAUCUACGAAUUCUCACCAUAGAGAGGUUAUCCGCUCACCUAGAUCGGAAGAGCACACGU | 27.5 ± 9.5
target 1 MT 5'PFS AUG 3'PFS UCU (mixed) RNA 1: CACCCGUGCAAAAAUGCAGGGGUCUAAAACUGAGCGGAUAACCUCUCUAUGG RNA 2: GGGAAUGGAUCCACAUCUACGAAUUCAUGCCAUAGAGAGGUUAUCCGCUCAUCUAGAUCGGAAGAGCACACGU | 10.6 ± 1.75
target 1 MT 5'PFS ACU 3'PFS UCU (mixed) RNA 1: CACCCGUGCAAAAAUGCAGGGGUCUAAAACUGAGCGGAUAACCUCUCUAUGG RNA 2: GGGAAUGGAUCCACAUCUACGAAUUCACUCCAUAGAGAGGUUAUCCGCUCAUCUAGAUCGGAAGAGCACACGU | ~52
target 1 MT 5'PFS AAA 3'PFS AAA (mixed) RNA 1: CACCCGUGCAAAAAUGCAGGGGUCUAAAACUGAGCGGAUAACCUCUCUAUGG RNA 2: GGGAAUGGAUCCACAUCUACGAAUUCAAACCAUAGAGAGGUUAUCCGCUCAAAAAGAUCGGAAGAGCACACGU | 33.5 ± 14.5
target 1 MT 5'PFS GUU 3'PFS UAG (mixed) RNA 1: CACCCGUGCAAAAAUGCAGGGGUCUAAAACUGAGCGGAUAACCUCUCUAUGG RNA 2: GGGAAUGGAUCCACAUCUACGAAUUCGUUCCAUAGAGAGGUUAUCCGCUCAUAGAGAUCGGAAGAGCACACGU | 17.4 ± 2.25
target 1 MT 5'PFS GUU 3'PFS UAA (mixed) RNA 1: CACCCGUGCAAAAAUGCAGGGGUCUAAAACUGAGCGGAUAACCUCUCUAUGG RNA 2: GGGAAUGGAUCCACAUCUACGAAUUCGUUCCAUAGAGAGGUUAUCCGCUCAUAAAGAUCGGAAGAGCACACGU | 20.9 ± 3.75
target 1 MT 5'PFS GAA 3'PFS UCA (mixed) RNA 1: CACCCGUGCAAAAAUGCAGGGGUCUAAAACUGAGCGGAUAACCUCUCUAUGG RNA 2: GGGAAUGGAUCCACAUCUACGAAUUCGAACCAUAGAGAGGUUAUCCGCUCAUCAAGAUCGGAAGAGCACACGU | 29 ± 8
target 1 MT 5'PFS GCG 3'PFS UCU (mixed) RNA 1: CACCCGUGCAAAAAUGCAGGGGUCUAAAACUGAGCGGAUAACCUCUCUAUGG RNA 2: GGGAAUGGAUCCACAUCUACGAAUUCGCGCCAUAGAGAGGUUAUCCGCUCAUCUAGAUCGGAAGAGCACACGU | 13 ± 2.45
target 1 MT 5'PFS AAG 3'PFS ACG (mixed) RNA 1: CACCCGUGCAAAAAUGCAGGGGUCUAAAACUGAGCGGAUAACCUCUCUAUGG RNA 2: GGGAAUGGAUCCACAUCUACGAAUUCAAGCCAUAGAGAGGUUAUCCGCUCAACGAGAUCGGAAGAGCACACGU | 15.5 ± 4
target 1 MT 5'PFS GAA 3'PFS UCU (mixed) RNA 1: CACCCGUGCAAAAAUGCAGGGGUCUAAAACUGAGCGGAUAACCUCUCUAUGG RNA 2: GGGAAUGGAUCCACAUCUACGAAUUCGAACCAUAGAGAGGUUAUCCGCUCAUCUAGAUCGGAAGAGCACACGU | 25 ± 5
target 1 MT 5'PFS CCG 3'PFS CGG (mixed) RNA 1: CACCCGUGCAAAAAUGCAGGGGUCUAAAACUGAGCGGAUAACCUCUCUAUGG RNA 2: GGGAAUGGAUCCACAUCUACGAAUUCCCGCCAUAGAGAGGUUAUCCGCUCACGGAGAUCGGAAGAGCACACGU | 19 ± 5.5
target 1 MT 5'PFS GAA 3'PFS UCG (mixed) RNA 1: CACCCGUGCAAAAAUGCAGGGGUCUAAAACUGAGCGGAUAACCUCUCUAUGG RNA 2: GGGAAUGGAUCCACAUCUACGAAUUCGAACCAUAGAGAGGUUAUCCGCUCAUCGAGAUCGGAAGAGCACACGU | 39.5 ± 18
target 1 MT 5'PFS GCG 3'PFS UCC (mixed) RNA 1: CACCCGUGCAAAAAUGCAGGGGUCUAAAACUGAGCGGAUAACCUCUCUAUGG RNA 2: GGGAAUGGAUCCACAUCUACGAAUUCGCGCCAUAGAGAGGUUAUCCGCUCAUCCAGAUCGGAAGAGCACACGU | 19 ± 4
target 1 MT 5'PFS AAG 3'PFS ACA (mixed) RNA 1: CACCCGUGCAAAAAUGCAGGGGUCUAAAACUGAGCGGAUAACCUCUCUAUGG RNA 2: GGGAAUGGAUCCACAUCUACGAAUUCAAGCCAUAGAGAGGUUAUCCGCUCAACAAGAUCGGAAGAGCACACGU | 23.5 ± 10
target 1 MT 5'PFS GAA 3'PFS UCC (mixed) RNA 1: CACCCGUGCAAAAAUGCAGGGGUCUAAAACUGAGCGGAUAACCUCUCUAUGG RNA 2: GGGAAUGGAUCCACAUCUACGAAUUCGAACCAUAGAGAGGUUAUCCGCUCAUCCAGAUCGGAAGAGCACACGU | 27 ± 7
target 1 MT 5'PFS GUU 3'PFS UAC (mixed) RNA 1: CACCCGUGCAAAAAUGCAGGGGUCUAAAACUGAGCGGAUAACCUCUCUAUGG RNA 2: GGGAAUGGAUCCACAUCUACGAAUUCGUUCCAUAGAGAGGUUAUCCGCUCAUACAGAUCGGAAGAGCACACGU | 14.3 ± 2.8
target 1 MT 5'PFS GCG 3'PFS UCG (mixed) RNA 1: CACCCGUGCAAAAAUGCAGGGGUCUAAAACUGAGCGGAUAACCUCUCUAUGG RNA 2: GGGAAUGGAUCCACAUCUACGAAUUCGCGCCAUAGAGAGGUUAUCCGCUCAUCGAGAUCGGAAGAGCACACGU | 12.8 ± 2.6
target 1 MT 5'PFS AAG 3'PFS ACC (mixed) RNA 1: CACCCGUGCAAAAAUGCAGGGGUCUAAAACUGAGCGGAUAACCUCUCUAUGG RNA 2: GGGAAUGGAUCCACAUCUACGAAUUCAAGCCAUAGAGAGGUUAUCCGCUCAACCAGAUCGGAAGAGCACACGU | ~47.5
target 1 A1U,G12U (mixed) RNA 1: CACCCGUGCAAAAAUGCAGGGGUCUAAAACUGAGCGGAUAACCUCUCUAUGG RNA 2: GGGAAUGGAUCCACAUCUACGAAUUCGUACCAUAGAGAGUUUAUCCGCUCUCCGAGAUCGGAAGAGCACACGU | 14.1 ± 1.8
target 1 MT 5'PFS GUU 3'PFS UAU (mixed) RNA 1: CACCCGUGCAAAAAUGCAGGGGUCUAAAACUGAGCGGAUAACCUCUCUAUGG RNA 2: GGGAAUGGAUCCACAUCUACGAAUUCGUUCCAUAGAGAGGUUAUCCGCUCAUAUAGAUCGGAAGAGCACACGU | 16.9 ± 2.4
target 1 MT 5'PFS AUG 3'PFS UCC (mixed) RNA 1: CACCCGUGCAAAAAUGCAGGGGUCUAAAACUGAGCGGAUAACCUCUCUAUGG RNA 2: GGGAAUGGAUCCACAUCUACGAAUUCAUGCCAUAGAGAGGUUAUCCGCUCAUCCAGAUCGGAAGAGCACACGU | 20 ± 8.5
target 1 MT 5'PFS CUA 3'PFS CAG (mixed) RNA 1: CACCCGUGCAAAAAUGCAGGGGUCUAAAACUGAGCGGAUAACCUCUCUAUGG RNA 2: GGGAAUGGAUCCACAUCUACGAAUUCCUACCAUAGAGAGGUUAUCCGCUCACAGAGAUCGGAAGAGCACACGU | ~9.5
target 1 MT 5'PFS GCG 3'PFS UCA (mixed) RNA 1: CACCCGUGCAAAAAUGCAGGGGUCUAAAACUGAGCGGAUAACCUCUCUAUGG RNA 2: GGGAAUGGAUCCACAUCUACGAAUUCGCGCCAUAGAGAGGUUAUCCGCUCAUCAAGAUCGGAAGAGCACACGU | 17.7 ± 4.45
target 1 MT 5'PFS GUU 3'PFS ACG (mixed) RNA 1: CACCCGUGCAAAAAUGCAGGGGUCUAAAACUGAGCGGAUAACCUCUCUAUGG RNA 2: GGGAAUGGAUCCACAUCUACGAAUUCGUUCCAUAGAGAGGUUAUCCGCUCAACGAGAUCGGAAGAGCACACGU | 33 ± 6.5
